Reference: FireProtDB (doi:10.1021/bi034721x)
Where “and” joins values, the source holds several entries; their conditions need not be identical. Equal values may be shown once.

Conditions: Rattus norvegicus; pH 7.4; Thermal; DSC; sodium phosphate 10 mM; NaCl 0.20 M; whole UniProt chain shown

B1: Parvalbumin alpha wild type, P02625 (protein)
chain: MSMTDLLSAEDIKKAIGAFTAADSFDHKKFFQMVGLKKKSADDVKKVFHILDKDKSGFIEEDELGSILKGFSSDARDLSAKETKTLMAAGDKDGDGKIGVEEFSTLVAES
- unfolding enthalpy (calorimetric): 76 kcal/mol and 72 kcal/mol and 52 kcal/mol
